The results in this text go back to PMC5922973, “Topoisomerase VI senses and exploits both DNA crossings and bends to facilitate strand passage” (eLife, 2018).

The series deals with the molecule itself. The experiment in a line: FRET or BRET; bulk FRET between Alexa555 and Alexa647 on Cys155 of the two Top6B in the holoenzyme; 200 nM topo VI with 100 uM bp supercoiled plasmid DNA, before and over time after 1 mM AMPPNP; 50 mM potassium glutamate, 20 mM HEPES-KOH pH 7.5, 10 mM MgCl2. On the technique in general: BRET reads energy transfer from a luciferase to a nearby fluorophore.

B1: M. mazei Top6B KGRR^AAA cyslite-155C, Alexa555/Alexa647-labeled, in the topo VI holoenzyme (enzyme, Methanosarcina mazei)
chain: METPIAEELAKKQKSISVAEFFEKNRQILGFDSAPRSLITTVKEAVDNALDACEEAGILPDILVQVERTGPDYVTVIIEDNGPGIVREQIPKVFAKLLYGSRFHALKQSRGQQGIGISAAVLYAQMTAGRHTKILSKTSPTAPAHYYELMINTSCNEPDILVDEVRDWFRPHGTQIELEMRAAYVAGAAQSIYEYLKATAIVNPHARITLIDPDGNEEVFERATDKMPEPAEEILPHPEGIELGTLMKMLHYTERQKLAPFLRYSFSKIGLLTAEEIAKAAGLDPEIDPHALGRHEARKLIEAFEKVKIMAPPTDALSPIGEDLIYRGLEKETTVDFIATSTRKPAVYSGNPFVVEVGMAYGGNLPKEEKISIMRFANRVPLLYQQGGCVTTHAVEDIKWKQYGLNQPGGGIPVGPVILLIHVASINVPFTSESKDAIADIPVIKEEIDLAIKEVARKLKHYLSKQSNLKKRREKEIIITKVLPKLAAKVAHVLEKDVPDINPVVAKIMGNLLVHRVIKNNGDGTVDVAIKVKNFGTSAYSFRVHEMLPAKVSGAKPEPKVVTMGNDYDYVWDISASAGSSKVLSYKIESASEEELQKLPQLIVEGIEEELVTGAKAFKGV
modifications: Alexa Fluor 555 C2 maleimide or Alexa Fluor 647 C2 maleimide on Cys155
notes: Top6B of Methanosarcina mazei topo VI, cyslite-155C with the KGRR^AAA mutations; Stood in the assay as part of the A2B2 holoenzyme with Top6A; also called Top6AB-KGRR^AAA cyslite-155C; KGRR^AAA FRET assay construct; not shown: His6, N-terminal, cleaved
On to B1, for which the binding result is given as “binds”.

B2: M. mazei Top6B H2TH^AAA cyslite-155C, Alexa555/Alexa647-labeled, in the topo VI holoenzyme (enzyme, Methanosarcina mazei)
chain: METPIAEELAKKQKSISVAEFFEKNRQILGFDSAPRSLITTVKEAVDNALDACEEAGILPDILVQVERTGPDYVTVIIEDNGPGIVREQIPKVFAKLLYGSRFHALKQSRGQQGIGISAAVLYAQMTAGRHTKILSKTSPTAPAHYYELMINTSCNEPDILVDEVRDWFRPHGTQIELEMRAAYVKGRRQSIYEYLKATAIVNPHARITLIDPDGNEEVFERATDKMPEPAEEILPHPEGIELGTLMKMLHYTERQKLAPFLAYSFSAIGLLTAEEIAKAAGLDPEIDPHALGRHEARKLIEAFEKVAIMAPPTDALSPIGEDLIYRGLEKETTVDFIATSTRKPAVYSGNPFVVEVGMAYGGNLPKEEKISIMRFANRVPLLYQQGGCVTTHAVEDIKWKQYGLNQPGGGIPVGPVILLIHVASINVPFTSESKDAIADIPVIKEEIDLAIKEVARKLKHYLSKQSNLKKRREKEIIITKVLPKLAAKVAHVLEKDVPDINPVVAKIMGNLLVHRVIKNNGDGTVDVAIKVKNFGTSAYSFRVHEMLPAKVSGAKPEPKVVTMGNDYDYVWDISASAGSSKVLSYKIESASEEELQKLPQLIVEGIEEELVTGAKAFKGV
modifications: Alexa Fluor 555 C2 maleimide or Alexa Fluor 647 C2 maleimide on Cys155
notes: Top6B of Methanosarcina mazei topo VI, cyslite-155C with the H2TH^AAA mutations; Stood in the assay as part of the A2B2 holoenzyme with Top6A; also called Top6AB-H2TH^AAA cyslite-155C; not shown: His6, N-terminal, cleaved
Consider B2, for which the binding result was “binds”.
